Experimental findings from PMC10902354, “Deficiency in PHD2-mediated hydroxylation of HIF2α underlies Pacak-Zhuang syndrome” (Communications Biology, 2024) are described below.

The target of the assay is T1, Alexa 647 labeled PHD2 (catalytic / prolyl-hydroxylase domain, residues 181-426) (human, UniProt Q9GZT9 181-426, Alexa Fluor 647 N-hydroxysuccinimide ester dye, 1-2 dye molecules per protein molecule).
T1 construct: PHD2, prolyl-hydroxylase domain (catalytic domain), residues 181-426, from pET-46-HIS6-PHD2; Same construct as m2, dye-labeled for MST; also called PHD2-647; source: E. coli BL21(DE3), purified (Ni-NTA, thrombin cleavage, Superdex 75), labeled with Alexa Fluor 647 NHS ester
Nature of the assay: MST; 25 nM Alexa 647 labeled PHD2, unlabeled peptide in 16 two-fold dilutions; room temperature; MST Buffer 50 mM Tris-HCl pH 7.5, 1 mM NOG, 10 µM FeSO4, 5 mg/ml BSA mixed 1:1 with peptide in 50 mM Tris-HCl pH 8.0; 1:1 Kd model; triplicate. To be noted: both partners purified.

T1 sequence (Q9GZT9 181-426): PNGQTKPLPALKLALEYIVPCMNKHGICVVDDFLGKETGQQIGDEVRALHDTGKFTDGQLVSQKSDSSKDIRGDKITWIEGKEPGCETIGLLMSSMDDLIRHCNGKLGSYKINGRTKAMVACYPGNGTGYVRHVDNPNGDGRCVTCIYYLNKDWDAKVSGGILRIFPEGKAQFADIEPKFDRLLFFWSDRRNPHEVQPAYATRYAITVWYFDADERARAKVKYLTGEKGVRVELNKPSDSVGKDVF

B1: HIF2α-CODD P534R peptide (peptide, UniProt Q99814 523-542, looked up)
peptide: Ac-ELDLETLAPYIRMDGEDFQL-NH2
notes: HIF2α (EPAS1) CODD peptide, human, as m3 with the disease mutation P534R (Class 2); also called HIF2α P534R; source: synthetic peptide (Genscript, ≥95% purity)
The molecule B1 had a Kd of 153 ± 10 µM.

B2: HIF2α-CODD Y532H peptide (peptide, UniProt Q99814 523-542, looked up)
peptide: Ac-ELDLETLAPHIPMDGEDFQL-NH2
notes: HIF2α (EPAS1) CODD peptide, human, as m3 with the disease mutation Y532H (Class 2); also called HIF2α Y532H; source: synthetic peptide (Genscript, ≥95% purity)
For the molecule B2, the affinity, expressed as Kd, was 41 ± 5 µM.

B3: HIF2α-CODD I533V peptide (peptide, UniProt Q99814 523-542, looked up)
peptide: Ac-ELDLETLAPYVPMDGEDFQL-NH2
notes: HIF2α (EPAS1) CODD peptide, human, as m3 with the disease mutation I533V (Class 2); also called HIF2α I533V; source: synthetic peptide (Genscript, ≥95% purity)
As for B3, binding was characterised by a dissociation constant (Kd) of 167 ± 29 µM.

B4: HIF2α-CODD F540L peptide (peptide, UniProt Q99814 523-542, looked up)
peptide: Ac-ELDLETLAPYIPMDGEDLQL-NH2
notes: HIF2α (EPAS1) CODD peptide, human, as m3 with the disease mutation F540L (Class 2); also called HIF2α F540L; source: synthetic peptide (Genscript, ≥95% purity)
B4 returned a Kd of 229 ± 25 µM.

B5: HIF2α-CODD Y532C peptide (peptide, UniProt Q99814 523-542, looked up)
peptide: Ac-ELDLETLAPCIPMDGEDFQL-NH2
notes: HIF2α (EPAS1) CODD peptide, human, as m3 with the disease mutation Y532C; also called HIF2α Y532C; source: synthetic peptide (Genscript, ≥95% purity)
In turn, B5 had a Kd of 345 ± 247 µM.

B6: HIF2α-CODD M535I peptide (peptide, UniProt Q99814 523-542, looked up)
peptide: Ac-ELDLETLAPYIPIDGEDFQL-NH2
notes: HIF2α (EPAS1) CODD peptide, human, as m3 with the disease mutation M535I (Class 2); also called HIF2α M535I; source: synthetic peptide (Genscript, ≥95% purity)
As to B6, the Kd is 154 ± 17 µM.

B7: HIF2α-CODD G537R peptide (peptide, UniProt Q99814 523-542, looked up)
peptide: Ac-ELDLETLAPYIPMDREDFQL-NH2
notes: HIF2α (EPAS1) CODD peptide, human, as m3 with the disease mutation G537R (Class 2); also called HIF2α G537R; source: synthetic peptide (Genscript, ≥95% purity)
B7 gave a Kd of 175 ± 20 µM.

B8: HIF2α-CODD P534L peptide (peptide, UniProt Q99814 523-542, looked up)
peptide: Ac-ELDLETLAPYILMDGEDFQL-NH2
notes: HIF2α (EPAS1) CODD peptide, human, as m3 with the disease mutation P534L (Class 2); also called HIF2α P534L; source: synthetic peptide (Genscript, ≥95% purity)
B8: the Kd was 221 ± 19 µM.

B9: HIF2α-CODD D539Y peptide (peptide, UniProt Q99814 523-542, looked up)
peptide: Ac-ELDLETLAPYIPMDGEYFQL-NH2
notes: HIF2α (EPAS1) CODD peptide, human, as m3 with the disease mutation D539Y (Class 1); also called HIF2α D539Y; source: synthetic peptide (Genscript, ≥95% purity)
B9 had a Kd of 381 ± 50 µM. This Kd is about 1.7-fold higher than that of the molecule before.

B10: HIF2α-CODD D539N peptide (peptide, UniProt Q99814 523-542, looked up)
peptide: Ac-ELDLETLAPYIPMDGENFQL-NH2
notes: HIF2α (EPAS1) CODD peptide, human, as m3 with the disease mutation D539N (Class 1); also called HIF2α D539N; source: synthetic peptide (Genscript, ≥95% purity)
With B10, binding was put at a Kd of 760 ± 274 µM.

B11: HIF2α-CODD M535T peptide (peptide, UniProt Q99814 523-542, looked up)
peptide: Ac-ELDLETLAPYIPTDGEDFQL-NH2
notes: HIF2α (EPAS1) CODD peptide, human, as m3 with the disease mutation M535T (Class 2); also called HIF2α M535T; source: synthetic peptide (Genscript, ≥95% purity)
Turning to B11, the affinity, expressed as Kd, was 203 ± 25 µM.

By Kd is commonly meant a measure of binding affinity in units of concentration. Read a high Kd as weaker binding.
